Assay: yeast display, Sf9 membrane polyspecificity reagent, FACS + sequencing; frameworks hold sequencing errors
Procedure, shortened: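 A synthetic nanobody library was expressed on Saccharomyces cerevisiae BJ5465 by galactose induction for 36–48 hours. The library was stained for 1 hour at 4 °C with 10% biotinylated, detergent-solubilized Sf9 membrane reagent and enriched with streptavidin microbeads before FACS. Low and high (top ~1%) gates were set on anti-HA fluorescence for expression and streptavidin fluorescence for reagent binding, and each polyreactivity label reflects the gate of origin.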

Row | Sequence | polyreactivity (PSR sort gate)
1 | QVQLVESGGGLVQAGGSLRLSCAASGNIFLYYAMGWYRQAPGKERELVADIDSSGASTYYADSVKGRFTISRDNAKNTVYLQMNSLKPEDTAVYYCAARGRKNQRRYGYWGQGTQVTVSS | low polyreactivity
2 | QVQLVESGGGLVQAGGSLRLSCSASGYIYQYNSMGWYRQAPGKERELVAANSRGGRTNYADSVKGRFTISRDNAKNTVYLQMNSLKPEDTEVYYCAAKRPWGYYPWSTQTGDYWGQGTQVTVSS | high polyreactivity
3 | QVQLVESGGALVQAGGSLRLSCAASGRTFYPNAMGGYRQAPGKERELVAGSSYGTGSTYYADSVKGRFTISRDNAKNTVYLQMNSLKAEDNAVYYCAADNWAVNAYYWYIYDYWGQGTQVTVSS | low polyreactivity
4 | QVQLVESGGGLVQAGGSLRLSCAASGFISYFYAMGWYRQAPGKERELVAAISWNGARTYYADSVKGRFTISRDNAKNTVYLQMNSLKPEDTAVYYCNAGTFTRRRGLDYWGQGTQVTVSS | low polyreactivity
5 | QVQLVESGGGLVQAGGSLRLSCAASGSTFSSYAMGWYRQAPGKERELVAAISSSGVRTYYADSVKGRFTISRDNAKNSVYLQMNSLKPEDTAVYYCKLTLLTVNRTGMTTWGQGTQVTVSS | high polyreactivity
6 | QVQLVESGGGLVQAGGSLRLSCAASGLTFDYYAMGWYRQAPGKERELVAAITRRGGGTYYADSVKGRFTISRDNAKNTVYLQMNSLKPEDTAVYYCNADRRSWSALHRYDYWGQGTQVTVSS | high polyreactivity
7 | QVQLVESGGGLVQAGGSLRLSCAPSGSTFYKNAMGWYRQAPWKERELVAGISRRGGRTYYADSVKGRFSISRDNAKNTVYLQMNSLKPEDTAVYYCNARLLSGPGYDYWGQGTQVTVSS | low polyreactivity
8 | QVQLVESGGGLVQAGGSLRLSCAASGSTINSYTKGWYSQAPRKERELVAAISGSSGRTYDADSVKGRFTISRDNAKNTVYLQMNSLKPEDTAVYYGAAVDLYGGSDYWGQGTQVTVSS | high polyreactivity
9 | QVQLVESGGGLVQAGGSLRLSCAASGLTFAYYAMGWYRQAPGKERELVAAITSSGTSTYYADSVKGRFTISRDNAKNTVYLQMNSQKPEDTAVYYCNARVYGYRYTYRMDYWGQGTQVTVSS | high polyreactivity
10 | QVQLVESVGGLDQAGGSLRLSCAASGRIIAWYPMGWYRQSPGKERELVAAISWNGGRTYYADSVKGRFTISRDNAKNTVYLQINSLKPEDTAVYYCAAGKTPQKYGGFNSWGQGTQVTVSS | high polyreactivity
11 | QVQLVESGGGLVQAGGSLRLSCAASGGIFDTYAMGWYRQAPGKERELVAAISSTGGSSYYADSVKGRFTISRDNAKNTVYLQMNSLKPEDTAVYYCNAVLARFWRYRRWEYDYWGQGTQVTVSS | high polyreactivity
12 | QVQLVESGGGLVQAGGSLRLSCAASGRIFRLYTMGWYRPAPGKERELVAAISGSGGRTYYADSVKGRFTISRDNAKNTVYLQMNSLKPEDTAVYYCAKVGYKSPYLYSQHYTGFGYWGQGTQVTVSS | high polyreactivity
13 | QVQLVESGGGLVQAGGRLLLSCAASGFTFYTYAMGWYRQAPGKERELVADISSGGSTNYADSVKGRFTISRDNAKNTVYLQMNSLKPEDTAVYYCSADYYFLDWYDYWGQGTQVTVSS | low polyreactivity
14 | QVQLVESGGGLVQAGGSLRLSCAASGFIFAWYAMGWYRQAAGKERQLVATISSSGARTYYADSVKGRFTISRDNAKITVYLQMNSLKPEDTAVYYCAFGSVGRLKFYYWGQGTQVTVSS | high polyreactivity
15 | QVQLVESGGGLVQAGGSLRLSCAASGSTFGVYNMGWYRQAPGQESELVAAITKSGGSTYYADSVMGLFTISRDNAKNTVYLQMNSMNPEDTAVYYCNTDYGRYLYYRFGYLGQGTQVTVSS | low polyreactivity
16 | QVQLVESGGSLVKAGGSLRLSCAASGRIFGSNTIGWYRPEPGKERELVAAITSRGGSTYYADSVKGRFTISRDNAKNTVYLQMNSLKPEDTSVYYCAAKTVLFIFGYWGQGTQVSVSS | high polyreactivity
17 | QVHLVESGGGLVQAGGSLRISCAASGSSFSIYAMGSYRQAPGKERELVAAITCTVGSTYYADSVKGRFTISRDIAKYTVYLPLNSLKPEDTAVYYFAARQVNYDYDFWGQGTQVTVSS | low polyreactivity
18 | QVQLVESGGGLVQAGGSLRLSCDASGSTFGIYAMGCYRQAPGKERELVAANSRSGDSTYYADSVKGRFTISRDNAKNTVDLQMNSLKPEDTAVYYCAADSYRLRYWAVTTHRVQYDYWGQGTQVTVSS | low polyreactivity
19 | QVQLVESGGGLVQAGGSLRLSCAASGRTLNRNAMGWYRQAPGKERELVAAISRRGGSTNYADSVKGRFTISRDNAKNTVYLQMNSLKPEDTAVYYCARVTTVYDGRGFVDVKRGYWGQGTQVTVSS | high polyreactivity
20 | QVQLVESGGGLVQAGGSLRLSCAASGFIFDDNAMGWYRQAPGKEREVVAAITSGGGSTYYADSVKGRFTISRDNAKNTVYLQMNSLKPEDTAVYYCNAVPSQHDEFDYWGQGTQVTVSS | low polyreactivity
21 | QVQLVESGGGLVQAGGSLRLSCAASGLTFDYYAMGWYRQAPGKERELVAAITSSGGRTYYADSVKGRFTISRDNPNKTVYLQMNSLKPEDTAVYYCAADPYSVYGGDYWGQGTQVTVSS | low polyreactivity
22 | QVQLVESGGGLVQAGGSLRLSCAASGRTFNRYAMGRYRQAPGKERELVAVITSDGRRNYADSVKGRFTISRDKAKNTVYFQINSLKPEDTAVSYCNKRSALSFVYDFDYWGQGTQVTVSS | low polyreactivity

Row | Sequence | polyreactivity (PSR sort gate)
23 | QVQLVESGGGLVQAGGSLRLTCAATGSTFHLYGMGWYRKAPGKESELVAAITKRGTSTYYADSVKGRFTISRDNAKNTVYLQINSLKPEDTAVYYCADEYTKEQRGFDYWGQGTQVTLSS | high polyreactivity
24 | QVQLVESGGGLVQAGGSLRLSCAASGITSRFNAMGWYRQAPGKERELVAAISSRGTSTYYADSVKGRFTISRDNAKNTVYLQMNTLKPEDTAVYYCAVSQRAPKFPGDYWGQGPQVTVSS | high polyreactivity
25 | QVQHVESGGGLVQAGGSLRLSCAASGSTFSPNAMGWYRQAPGKERELVAAIRWRTGTTYYADSVKGRFTISRDNAKNTVYLQMNSLKPEDTAVYYCAAVYKPPNNKYGSAWEYGYWGQGTQVTVSS | high polyreactivity
26 | QVQLVESGGGLVQAGGRLRLSCAASGSTFEVNAMGWYRQAPGKERELVAAISSSAGDTYYADSVKGRFTISRDNAKYTVYLQMNSLKPEDTAVYYCAADYGYSPFDYWGQGTQVTVSS | low polyreactivity
27 | QVQLVESGGGLVQAGGSLRLICAASGYTFYFYAMGWYIQAPGKERELVAAITGGGTTSYADSVKGRFTISRDKAKNTVYLQMNSLKPEDTAVYYCASSVRNNIERYRDYYWGQGTQVTVSS | low polyreactivity
28 | QVQLVESGGGLVQAGGSLRLSCAASGFTFYSYTMGWYRQAPGKERELVAAITRGGRTYYADSVKGRFTISRDNAKNTVYLQMNSLKPEDTAVYYCAARVGSWTQSFGYDYWGQGTQVTVSS | high polyreactivity
29 | QVQLVESGGCLVQAGGSLRLSCAASGFIFSYYALGWYRQAPGKERELVAAITWDGGSTYYADSVKGRFTISRDNAKNSVYLQMNSLKPEDTAVYYCNAYYYYRRPLEGGYWGQGTQVTVSS | low polyreactivity
30 | QVQLVESGGGLVQAGGSLRLSCAASGFIFGLNAMGWYRPAPGKERELVAAIRSASSTNYADSVKGRFTISRDNAKNTVYLQMNSLKPEDTAVYYCAAEYVTYQQGFWGYDYWGQGTQVTVSS | low polyreactivity
31 | QVQLVESGGGLVQAGGSLRLSCAASGSIFGPSAMGWYIQAPGKERDLVAGITRSVGSTYYADSVKGRFTISRDNAKNTVYLQMNSLKPEDTADYYCNAKWLYSRWAGYDYWGQGTQVTVSS | low polyreactivity
32 | QVQLVESGGGLVQAGGSLRLSCAASGLTFWYYAMGWYRQAPGKERELVAAISWSGGRTSYADSVKGRFTISRDNAKNTVYLQMNSLKPEDTAVYYCAADKDFRTGEFEYDYWGQGTQLTVSS | high polyreactivity
33 | QVQLVESGGGLVQAGGSLRLSCAASGSTLRGYAMGWYRQAPGEERELVAAISRRGSGTYYADSVKGRFTISRDNAKHTVYLQMNSLKPEETAVYYCNAVNGDYEFGYWGQGTQVTVSS | high polyreactivity
34 | QEQLQESGGCLVQAGGSLRLSCAASGSIFYVYGMGWFRQPPGKELELVAGINDGTNTNYADSVRGRFTISRDNAKNTVLLQMNSLKPEDTAVYYCAADGNCYQAHEYWGVGTQVTVSS | high polyreactivity
35 | QFQLEESGGGLVQAGGSIRLSCAASGFILDSYGMGWYRQAPGTERELVAAISQSDVSTYYADSVNGRYTISRDNAKNTVYLHMNSLKPEDTAVYYCAADRGGLRWFWQVLFDYWGQGTQVTVSS | low polyreactivity
36 | QVQLVESGGGLVKAGGSLLLSCAASGIIFRRNAMGRNIQAPGKERELVAAISSSKGRTYYADSVKGRFTISRDNAKNTVYLQMNSLKPEDTAVYYCTADYDASARGWGQIAYVYWGQGTQVTVSS | low polyreactivity
37 | QVQLVESGGGLVQAGGRLRLSCAACGIIFLLYAMGWYRQAPGKERELVAAITNGGRTNYADSVQGRFTISRDNAKNTVYLQMNSRKPEDTALYYCNAVLSVPDYTLFDYWGQGTQVTVSS | low polyreactivity
38 | QVQLVESGGGLVQAGGSLRLSCAASGSNITPNAMGWYRQAPGKERELVAAISSSSDRTYYADSVKGRFTISRDNAKNTVYLQMNSLKPEDTAVYYCAAYAQKRYYWGQGTQVTVSS | high polyreactivity
39 | QVQLVESGGGLVQAGGSLRLSCAASGSTFVDNAMGWCRQAPGKERELVADISSGGSTYYADSVKGRFTISRDNAKNTVYLQMNSLKPEDTAVYYCAARGVYRRGKYNSWGQGTQVTVSS | high polyreactivity
40 | QVQLVESGGGLVKAGGSLRLSCAASGIIMSYYVMGWYIQAPGKERELVAAISLRGGTTYYADSEKGRFTISRDNAKNTVYLQKNSLKPEDTAVYYCAAQRPGFGYEYDYWGQGTQVTVSS | high polyreactivity
41 | QVKLVESGGGLVQAGGSLRLSCAASGIIFTFYSMGRYRQAPGKERELVAAITGSGGSTYYADSVKGRFTISRDNAKNSVYLQMNSLKPEDTAVYYCAADGPYGYYYGHYGYWGHGTQVTVSS | low polyreactivity
42 | QVQLVESGGGLVQAGGSLRLSCAASGRTFFQYAMGWYRQAPGKERELVATIRSGGSTYYADSVKGRFTISRDNAKNTVYLQMNSLKPEDTAVYYCATRYTRFRHFDYWGQGTQVTVSS | low polyreactivity
43 | QVQLVESGGGLVQAGGSLRLICAASGNTFYYYAMGWYRQAPGKERELVASITSTARTYYADSVKGRFTISRDNAKNTGYLQMNSLKPEDTAVYYCNAKEHYATRSDSCGQGTQVTVSS | high polyreactivity

Source: the nanobody polyreactivity screen of Harvey et al. (2022)
